Reference: US9777041B2, “Protein nanofibers from self-assembling pentamers” (New York University, priority 2013, dated 2017)

B1: wt: coiled-coil region of cartilage oligomeric matrix protein with the two cysteines replaced by serines, SEQ ID NO:4 (protein)
chain: MRGSHHHHHHGSGDLAPQMLRELQETNAALQDVRELLRQQVKEITFLKNTVMESDASGKLN
modifications: human

Tests used:
[1] = Transmission electron microscopy of protein fibers; assay type: physicochemical; details: for fiber formation seen by TEM: pH 4, 50 mM PB
Method: Transmission electron microscopy: A JEOL JEM-1400 transmission electron microscope (TEM) was used to study the supramolecular protein structure. […] After 1 minute, the grids were blotted using filter paper and rinsed with 3-4 drops Milli Q water to remove excess salts from the buffer. After blotting with filter paper, the sample was negatively stained by adding 3 μL of 1% filtered uranyl acetate, blotted using filter paper, and dried at room temperature for 10-15 minutes. ImageJ software was used to measure the fibers dimensions.

[2] = ATR-FTIR secondary structure of solid-state protein; assay type: physicochemical; details: 10 μM protein in 50 mM PB
Method: Attenuated Total Reflectance Fourier Transform Infrared Spectroscopy (ATR-FTIR): ATR-FTIR experiments were performed using Perkin Elmer System 2000 FT-IR with DuraSamplIR II T diamond ATR accessory and equipped with a MCT-A detector. Approximately, 5 μL of peptide solution (10 μM in 50 mM PB, pH 4, 8, and 10) was added on the diamond ATR surface. The spectrum (128 scans) was measured at room temperature over a range of 4000-400 cm^−1 with 0.5 cm^−1 resolution. PeakFit software was used to process the data, which involved a 2nd derivative zero baseline correction of the amide I region between 1700-1600 cm^−1 and deconvolution of peaks with a Gaussian function. All readings represent the average of two trials.
To quantifying the secondary structure of the protein in its solid-state, ATR-FTIR experiments were conducted to evaluate secondary structure of insoluble Q fibers at pH 4, 8, and 10 (Table 8). The frequency measured in the regions of the amide I and amide II absorptions of a protein correlate to the secondary structural motifs within the protein, and were thereby used to assess conformation of the protein in its solid-state (FIGS. 20a-20d). Secondary structure conformation based on ATR-FTIR data for Q in 50 mM PB at pH 4, 8, and 10, and in the presence of curcumin at a 5:1 molar ratio with Q at pH 4 are shown in […]. Percent composition was determined from relative areas of peaks fit to spectra (FIGS. 20a-20d).
Secondary structure conformation based on ATR-FTIR data for 10 μM protein in 50 mM PB before and after templation of AuNPs is provided in Table 10. Percent composition was determined from relative areas of peaks fit to spectra (see spectra FIGS. 37a-37d, FIGS. 38a-38d).

[3] = Confocal microscopy of protein fibers in the presence of curcumin; assay type: physicochemical; details: protein:curcumin 1:5, 50 mM phosphate buffer pH 4
Method: FIGS. 7a-7c show confocal microscopy of CC, Q54, and COMPcc^S wt, in the presence of curcumin. The mixture of protein to curcumin were all at a ratio of 1:5. […] All different proteins are in 50 mM phosphate buffer, pH 4. Protein and curcumin samples were combined and incubated for 12 hours prior to imaging. […] The width of COMPcc^S wt shown in FIG. 7c was determined to be 12.72 μm. […] Overall, Q54 fibers appeared to be more uniform in width, as well as more robust and consistent in fiber formation.
Confocal microscopy: Samples were imaged using a Leica TCS SP2 AOBS confocal microscope system equipped with argon ion and HeNe lasers. A 63×/1.4 NA oil-immersion objective was used for all of the images. Lab-Tek II chambered #1.5 German coverglass system was used as the imaging slide. Curcumin was excited using the 458 nm line of the argon laser, and images were taken with the detection window set between 465 and 560 nm. The pinhole aperture was set at an Airy value of 1.0, which was equivalent to sampling an ˜500 nm vertical z slice of the fiber, as estimated by the axial resolution, rz,confocal≈1.4λcm n/NA^2 (NA, numerical aperture; n, refractive index; λcm, emission wavelength (525 nm)). Interference contrast images were obtained using the Leica tube optics HC 1×/B apparatus with a focusing Bertrand lens. The 3D reconstructions were constructed using ImageJ 64 1.43 in concert with Amira 5.43, employing the Volren 3D rendering routine.

[4] = Curcumin binding fluorescence; details: in the presence of Zn^2+
Source text: FIG. 40. Fluorescence of C and Q or with incorporated trifluoroleucine/TFL (C TFL and Q TFL) in the presence of no metal, Ni (II), or Zn (II) and curcumin. An increase in fluorescence indicates structural stability of the protein as it is able to bind with curcumin, the fluorescent probe in this case.

[5] = Circular dichroism wavelength scans (secondary structure); assay type: physicochemical; details: for −θ222 × 10^3 / −θmin × 10^3: 10 μM protein; for random coil / α helices / β sheet: CD, K2D method
Method: (§1) Circular dichroism: Circular dichroism (CD) measurements were conducted on a Jasco J-815 CD spectrometer. Wavelength and temperature scans were conducted with 10 μM (6.3×10^−2 mg/mL) protein concentrations. The wavelength spectrum was measured over a range from 190 to 250 nm with a step size of 1 nm Mean residue ellipticity (MRE) was calculated from raw data according to the procedure described in Gunasekar et al. 2009. Secondary structure analysis of α-helical, β-sheet, and random coil content was calculated with the K2D method using DichroWeb software. Temperature scans of each protein were performed over a range of 20-85° C. with a temperature step of 1° C./min at 222 nm. Scans were also performed at of 2° C./min and 5° C./min to evaluate dependence of thermal melt signatures on scan speed. All measurements were made in duplicates of independently prepared proteins and data represents the average. Thermodynamic properties of wt and Q were determined through analysis of thermal melts. A two-state model was used, where assumptions included monophasic behavior and reversible melting behavior. These assumptions were confirmed experimentally by melting (from 20 to 85° C.) and cooling (from 85 to 20° C.) the proteins. Calculation of thermodynamic parameters including Tm, ΔG°, ΔH°, and ΔS° were performed according to the method described by Greenfield.
To assess the secondary structure of the proteins under acidic as well as neutral and basic conditions in solution, CD measurements were performed. […] The presence of residue P28 towards the center of Q may have influenced the secondary structure, showing decreased helical content when compared to wt at pH 4 and 10 (FIG. 16). The negative control, L, was completely unstructured, devoid of helical content at pH 4 (FIG. 11). […] As the pH increased, the helical content of soluble Q protein increased.
Mean residual ellipticities from circular dichroism measurements at pH 4, 8, and 10 for wt, L, and Q. The data presented in Table 5 represents the average and standard deviation of at least two replicates.

[6] = Circular dichroism thermal melts at 222 nm, van't Hoff analysis; assay type: physicochemical; details: for Tm: 10 μM protein; for ΔG° (free energy of folding): at 25° C.; for ΔS°: ΔS° = ΔH°/Tm
Method: as §1
Thermodynamic properties were assessed via thermal melt of the proteins at 222 nm. Prior to calculating thermodynamic constants, assumptions of monophasic behavior and melt reversibility were confirmed experimentally for wt and Q at all pHs by melting and cooling proteins (FIGS. 18a-18d). The van't Hoff equation was applied to thermal melts of the proteins in the range of 20-85° C.

[7] = without any evidence for protofibrils; cited from earlier work

Molecule | fiber formation seen by TEM [1] | Random, percent composition ([2]; +AuNP (after templation)) [%] | α helix, percent composition ([2]; +AuNP (after templation)) [%] | β sheet, percent composition ([2]; +AuNP (after templation)) [%] | Random, percent composition ([2]; before templation of AuNPs) [%] | α helix, percent composition ([2]; before templation of AuNPs) [%] | β sheet, percent composition ([2]; before templation of AuNPs) [%] | −θ222 × 10^3 ([5]; pH 4) | −θmin × 10^3 ([5]; pH 4) | random coil ([5]; pH 4) [%] | α helices ([5]; pH 4) [%] | β sheet ([5]; pH 4) [%] | −θ222 × 10^3 ([5]; pH 8) | −θmin × 10^3 ([5]; pH 8) | random coil ([5]; pH 8) [%] | α helices ([5]; pH 8) [%] | β sheet ([5]; pH 8) [%] | −θ222 × 10^3 ([5]; pH 10) | −θmin × 10^3 ([5]; pH 10) | random coil ([5]; pH 10) [%] | also measured
C: CC protein, SEQ ID NO:1, variant of COMPcc; coiled-coil forming homopentamers (MRGSHHHHHHGSIEGRAPQMLRELQETNAALQDVRELLRQQVKEITFLKNTSKL) | not been observed to form fibers | 16 | 30 | 54 | 28 | 38 | 33 | – | – | – | – | – | – | – | – | – | – | – | – | – | average width of protein fibers ([3]; 20 mM protein, 100 mM curcumin, 12 hours): 19.24±12 μm; binding to small molecule (curcumin fluorescence) [4]: substantially increase the binding to small molecule
L: L44 protein, SEQ ID NO:3, variant of COMPcc; negative control swap protein (MRGSHHHHHHGSIEGRLQDVERLLRQQVKEITFLKNTAPQMLRELQETNAASKL) [reference compound] | not been observed to form fibers | – | – | – | – | – | – | −0.41 10^3 deg cm^2 dmol^-1 | 5.18 10^3 deg cm^2 dmol^-1 | 43 | 9 | 49 | 3.54 10^3 deg cm^2 dmol^-1 | 4.14 10^3 deg cm^2 dmol^-1 | 49 | 13 | 38 | 3.40 10^3 deg cm^2 dmol^-1 | 3.89 10^3 deg cm^2 dmol^-1 | 52 | α helices ([5]; pH 10): 16%; β sheet ([5]; pH 10): 32%; fiber formation seen by confocal microscopy [3]: No fibers were seen
Qx: variant of Q54 void of the 6×his tag, SEQ ID NO:6 (VKEITFLKNTAPQMLRELQETNAALQDVRELLRQQSKL) | – | 20 | 48 | 32 | 29 | 45 | 26 | – | – | – | – | – | – | – | – | – | – | – | – | – | –
B1 | – | – | – | – | – | – | – | 13.18 10^3 deg cm^2 dmol^-1 | 13.02 10^3 deg cm^2 dmol^-1 | 32 | 50 | 18 | 18.28 10^3 deg cm^2 dmol^-1 | 17.61 10^3 deg cm^2 dmol^-1 | 30 | 64 | 6 | 17.84 10^3 deg cm^2 dmol^-1 | 17.13 10^3 deg cm^2 dmol^-1 | 31 | α helices ([5]; pH 10): 63%; β sheet ([5]; pH 10): 6%; ΔH° (van't Hoff enthalpy) ([6]; pH 4): -29.9 kcal/mol; Tm ([6]; pH 4): 48.2 °C; ΔG° (free energy of folding) ([6]; pH 4): -2.2 kcal/mol; ΔS° ([6]; pH 4): -93 cal/(mol·K); ΔH° (van't Hoff enthalpy) ([6]; pH 8): -31.0 kcal/mol; Tm ([6]; pH 8): 48.8 °C; ΔG° (free energy of folding) ([6]; pH 8): -2.3 kcal/mol; ΔS° ([6]; pH 8): -96.6 cal/(mol·K); ΔH° (van't Hoff enthalpy) ([6]; pH 10): -29.8 kcal/mol; Tm ([6]; pH 10): 46.3 °C; ΔG° (free energy of folding) ([6]; pH 10): -2.0 kcal/mol; ΔS° ([6]; pH 10): -93.3 cal/(mol·K); fiber diameters ([1]; pH 8, 10 mM PB): 17±3 nm; width of fibers ([3]; 12 hours): 12.72 μm; fiber diameters (known) [7]: 10-15 nm
